# Test results reported in patent US20220259318A1 (Hoffmann-La Roche, published 2022).
# Positions count from the first letter of the chain named. Several values for one entry are separate records, joined by “and”; a condition that tells them apart may be missing. Equal entries are not always repeated.
# B1: 10B10-TCB (bispecific antibody, human IgG1, kappa, L234A L235A)
# light 1: DIQLTQSPHSLSASLGETVSIECLASEGISNYLAWFHQKPGKSPQLLIYYASSLQDGVPSRFSGSGSGTQYSLKISNMQPEDEGVYYCQQGYKYPLTFGSGTKLEIKRTVAAPSVFIFPPSDRKLKSGTASVVCLLNNFYPREAKVQWKVDNALQSGNSQESVTEQDSKDSTYSLSSTLTLSKADYEKHKVYACEVTHQGLSSPVTKSFNRGEC
# light 2: EVQLLESGGGLVQPGGSLRLSCAASGFTFSTYAMNWVRQAPGKGLEWVSRIRSKYNNYATYYADSVKGRFTISRDDSKNTLYLQMNSLRAEDTAVYYCVRHGNFGNSYVSWFAYWGQGTLVTVSSASVAAPSVFIFPPSDEQLKSGTASVVCLLNNFYPREAKVQWKVDNALQSGNSQESVTEQDSKDSTYSLSSTLTLSKADYEKHKVYACEVTHQGLSSPVTKSFNRGEC
# heavy 1: EVQLVESGGGLVQPGRSMKLSCAASGFTFTNFYMAWVRQAPTKALEWVASINTGGGYTYYRDSVKGRFTVSRDNTRSTLYLQMDSLRSEETATYYCARHLTYYGRYYYFDYWGQGVMVTVSSASTKGPSVFPLAPSSKSTSGGTAALGCLVEDYFPEPVTVSWNSGALTSGVHTFPAVLQSSGLYSLSSVVTVPSSSLGTQTYICNVNHKPSNTKVDEKVEPKSCDKTHTCPPCPAPEAAGGPSVFLFPPKPKDTLMISRTPEVTCVVVDVSHEDPEVKFNWYVDGVEVHNAKTKPREEQYNSTYRVVSVLTVLHQDWLNGKEYKCKVSNKALGAPIEKTISKAKGQPREPQVCTLPPSRDELTKNQVSLSCAVKGFYPSDIAVEWESNGQPENNYKTTPPVLDSDGSFFLVSKLTVDKSRWQQGNVFSCSVMHEALHNHYTQKSLSLSPGK
# heavy 2: not shown
# B2: P1AE5761 (antibody, V domains shown)
# VH: EVQLVESGGGLVQPGGSLRLSCAASGFSFSNYGMAWVRQAPGKGLEWVASISTGGGNTYYADSVKGRFTISRDNAKNTLYLQMNSLRAEDTAVYYCTRHDRGGLYWGQGTMVTVSS
# VL: DIVMTQSPLSLPVTPGEPASISCRSSKSLLHSNGITYVYWYLQKPGKSPQVLIYRMSNLASGVPDRFSGSGSGTDFTLKISRVEAEDVGVYHCGQLLENPYTFGQGTKLEIK
# notes: Humanized 5F11 IgG; PGLALA Fc implied by the CAR-J assay; also called 5F11_VH2d + 5F11_VL1b
# B3: P1AE5742 (antibody, V domains shown)
# VH: B2 VH with L11V, G16R, A61R
# VL: DIVMTQSPDSLAVSLGERATINCKSSKSLLHSNGITYVYWYQQKPGQPPKLLIYRMSNLASGVPDRFSGSGSGTDFTLTISSLQAEDVAVYHCGQLLENPYTFGQGTKLEIK
# notes: Humanized 5F11 IgG; PGLALA Fc implied by the CAR-J assay; also called 5F11_VH1b + 5F11_VL2b
# B4: P1AE5743 (antibody, V domains shown)
# VH: B2 VH with L11V, G16R, A61R
# VL: EIVLTQSPGTLSLSPGERATLSCRASKSLLHSNGITYVYWYQQKPGQAPRLLIYRMSNLASGIPDRFSGSGSGTDFTLTISRLEPEDFAVYHCGQLLENPYTFGQGTKLEIK
# notes: Humanized 5F11 IgG; PGLALA Fc implied by the CAR-J assay; also called 5F11_VH1b + 5F11_VL2c
# B5: P1AE5754 (antibody, V domains shown)
# VH: B2 VH with L11V, G16R
# VL: B4 VL
# notes: Humanized 5F11 IgG; PGLALA Fc implied by the CAR-J assay; also called 5F11_VH1d + 5F11_VL2c
# B6: P1AE5737 (antibody, V domains shown)
# VH: B2 VH with E1Q, L11V, G16R, A61R, A75S
# VL: B3 VL
# notes: Humanized 5F11 IgG; PGLALA Fc implied by the CAR-J assay; also called 5F11_VH1a + 5F11_VL2b
# B7: P1AE5749 (antibody, V domains shown)
# VH: B2 VH with E1Q, L11V, G16R, A75S
# VL: B4 VL
# notes: Humanized 5F11 IgG; PGLALA Fc implied by the CAR-J assay; also called 5F11_VH1c + 5F11_VL2c
# B8: P1AE5747 (antibody, V domains shown)
# VH: B2 VH with E1Q, L11V, G16R, A75S
# VL: B3 VL
# notes: Humanized 5F11 IgG; PGLALA Fc implied by the CAR-J assay; also called 5F11_VH1c + 5F11_VL2b
# B9: P1AE5738 (antibody, V domains shown)
# VH: B2 VH with E1Q, L11V, G16R, A61R, A75S
# VL: B4 VL
# notes: Humanized 5F11 IgG; PGLALA Fc implied by the CAR-J assay; also called 5F11_VH1a + 5F11_VL2c
# B10: P1AE5764 (antibody, V domains shown)
# VH: B2 VH
# VL: B4 VL
# notes: Humanized 5F11 IgG; PGLALA Fc implied by the CAR-J assay; also called 5F11_VH2d + 5F11_VL2c
# B11: P1AE5758 (antibody, V domains shown)
# VH: B2 VH with A61R
# VL: B3 VL
# notes: Humanized 5F11 IgG; PGLALA Fc implied by the CAR-J assay; also called 5F11_VH2b + 5F11_VL2b
# B12: P1AE5753 (antibody, V domains shown)
# VH: B2 VH with L11V, G16R
# VL: B3 VL
# notes: Humanized 5F11 IgG; PGLALA Fc implied by the CAR-J assay; also called 5F11_VH1d + 5F11_VL2b
# B13: P1AE5759 (antibody, V domains shown)
# VH: B2 VH with A61R
# VL: B4 VL
# notes: Humanized 5F11 IgG; PGLALA Fc implied by the CAR-J assay; also called 5F11_VH2b + 5F11_VL2c
# B14: P1AE5762 (antibody, V domains shown)
# VH: B2 VH
# VL: B2 VL with K47Q, V51L, L59R
# notes: Humanized 5F11 IgG; PGLALA Fc implied by the CAR-J assay; also called 5F11_VH2d + 5F11_VL2a
# B15: P1AE5709 (antibody, V domains shown)
# VH: EVQLLESGGGLVQPGGSLRLSCAASGFTFSKYAMAWVRQAPGKGLEWVASISTGGVNTYYRDSVKARFTISRDNSKNTLYLQMNSLRAEDTAVYYCATHTGDYFDYWGQGTMVTVSS
# VL: EIVLTQSPGTLSLSPGERATLSCRASQSVSISGINLMNWYQQKPGQQPRLLIYHASILASGIPDRFSGSGSGTDFTLTISRLEPEDFAVYYCQQTRESPLTFGQGTRLEIK
# notes: Humanized 5E11 IgG; PGLALA Fc implied by the CAR-J assay; also called 5E11_VH1a + 5E11_VL2a
# B16: P1AE5707 (antibody, V domains shown)
# VH: B15 VH
# VL: DIVMTQSPDSLAVSLGERATINCRASQSVSISGINLMNWYQQKPGQQPKLLIYHASILASGVPDRFSGSGSGTDFTLTISSLQAEDVAVYYCQQTRESPLTFGQGTRLEIK
# notes: Humanized 5E11 IgG; PGLALA Fc implied by the CAR-J assay; also called 5E11_VH1a + 5E11_VL1a
# B17: P1AE5722 (antibody, V domains shown)
# VH: B15 VH with R61A, A66G
# VL: B15 VL
# notes: Humanized 5E11 IgG; PGLALA Fc implied by the CAR-J assay; also called 5E11_VH1c + 5E11_VL2a
# B18: P1AE5716 (antibody, V domains shown)
# VH: B15 VH with V2L, S75A
# VL: B15 VL
# notes: Humanized 5E11 IgG; PGLALA Fc implied by the CAR-J assay; also called 5E11_VH1b + 5E11_VL2a
# B19: P1AE5717 (antibody, V domains shown)
# VH: B15 VH with V2L, S75A
# VL: B15 VL with R49K
# notes: Humanized 5E11 IgG; PGLALA Fc implied by the CAR-J assay; also called 5E11_VH1b + 5E11_VL2b
# B20: P1AE5710 (antibody, V domains shown)
# VH: B15 VH
# VL: B15 VL with R49K
# notes: Humanized 5E11 IgG; PGLALA Fc implied by the CAR-J assay; also called 5E11_VH1a + 5E11_VL2b
# B21: P1AE5729 (antibody, V domains shown)
# VH: B15 VH with V2L, R61A, A66G, S75A
# VL: B15 VL with R49K
# notes: Humanized 5E11 IgG; PGLALA Fc implied by the CAR-J assay; also called 5E11_VH1d + 5E11_VL2b
# Molecular target: T1, human GPRC5D (human, UniProt Q9NZD1 1-345)
# Test: cell-based or functional assay
# T1 sequence (Q9NZD1 whole entry): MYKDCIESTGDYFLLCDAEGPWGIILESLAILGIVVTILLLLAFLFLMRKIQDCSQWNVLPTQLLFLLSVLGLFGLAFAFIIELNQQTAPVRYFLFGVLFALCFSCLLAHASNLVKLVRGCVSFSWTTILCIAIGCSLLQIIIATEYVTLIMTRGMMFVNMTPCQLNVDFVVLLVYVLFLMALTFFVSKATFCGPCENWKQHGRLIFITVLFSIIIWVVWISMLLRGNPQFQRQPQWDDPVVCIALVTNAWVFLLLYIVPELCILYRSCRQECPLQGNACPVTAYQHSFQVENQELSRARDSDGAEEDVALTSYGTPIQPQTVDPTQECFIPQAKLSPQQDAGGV
Binder,"EC50 in vitro killing assay, AMO-1","EC50 in vitro killing assay, EJM","EC50 in vitro killing assay, L363","EC50 in vitro killing assay, MOLP-2","EC50 in vitro killing assay, NCI-H929","EC50 in vitro killing assay, OPM-2","EC50 in vitro killing assay, RPMI"
B1,0.084 nM,0.079 nM,0.034 nM,0.16 nM,0.056 nM,0.028 nM,0.965 nM

# Molecular target: T1, human GPRC5D
# Test: cell ELISA, CHO hu GPRC5D (EC/IC50 rel)
# Procedure: Stable transfected CHO clones expressing either human GPRCSD or cynomolgus GPRCSD or murine GPRCSD or human GPRCSA were used to analyze the binding of potential lead candidate antibodies as IgGs. In detail, 10⁴ cells (viability≥98%) were seeded into 384 well-microtiter plates (BD Poly D-Lysin, #356662, volume: 25 μl/well) using fresh culture medium. After overnight incubation at 37° C., 25 μl/well dilutions of antibodies were added (15×1:3 dilutions in 1×PBS, assay conc. starts at 30 μg/ml) to the cells for 2 hours at 4° C. After one washing step using 90 μl/well PBST (10×PBS, Roche, #11666789001+0.1% Tween 20), cells were subsequently fixed by the addition of 50 μl/well 0.05% glutaraldehyde (Sigma Cat. No: G5882 in 1×PBS) for 10 min at room temperature (RT). After three additional washing steps using 90 μl/well PBST, secondary antibodies were added for detection: for human antibodies goat anti-human Ig a chain antibody HRP conjugate (Millipore #AP502P) diluted 1:2000 in blocking buffer (1×PBS (Roche #11666789001)+2% BSA (Bovine Serum Albumin Fraction V, fatty acid free, Roche, #10735086001)+0.05% Tween 20) was used (25 μl/well). […] After incubation for 1 h at RT and three additional washing steps using 90 μl/well PBST, 25 μl/well TMB substrate was added (Roche order no. 11835033001) for 10 min and color development to final ODs was determined by measurement at 370 nm/492 nm.
# For the characterization of the humanization variants of the VH and VL domains of the GPRC5D binders the ELISA protocol as described above was used (see Example 7). The data are summarized in the table 10 for the humanization variants of 5E11 and in table 11 for the humanization variants of 5F11.
row,Binder,EC50
1,B2,0.0037 µg/mL and 0.02 nM
2,B3,0.0061 µg/mL and 0.04 nM
3,B4,0.0076 µg/mL and 0.05 nM
4,B5,0.009 µg/mL and 0.06 nM
5,B6,0.0059 µg/mL and 0.04 nM
6,B7,0.0074 µg/mL and 0.05 nM
7,B8,0.009 µg/mL and 0.06 nM
8,B9,0.0041 µg/mL and 0.03 nM
9,B10,0.0045 µg/mL and 0.03 nM
10,B11,0.0026 µg/mL and 0.02 nM
11,B12,0.0104 µg/mL and 0.07 nM
12,B13,0.0031 µg/mL and 0.02 nM
13,B14,0.0046 µg/mL and 0.03 nM
14,B15,0.0191 µg/mL and 0.13 nM
15,B16,0.0142 µg/mL and 0.09 nM
16,B17,0.0197 µg/mL and 0.13 nM
17,B18,0.0151 µg/mL and 0.1 nM
18,B19,0.0139 µg/mL and 0.09 nM
19,B20,0.0101 µg/mL and 0.07 nM
20,B21,0.0104 µg/mL and 0.07 nM

# Molecular target: T1, human GPRC5D
# Test: cell-based or functional assay
# Remark: another data set of the same source
row,Binder,"CAR-J2 EC50 [ng/mL] (PGLALA-CAR-J activation, L363 target cells)"
1,B2,74.6 ng/mL
2,B3,61.9 ng/mL
3,B4,583 ng/mL
4,B5,8.89 ng/mL
5,B6,2.95 ng/mL
6,B7,82.6 ng/mL
7,B8,183 ng/mL
8,B9,397 ng/mL
9,B10,78.2 ng/mL
10,B11,190 ng/mL
11,B12,30 ng/mL
12,B13,15.7 ng/mL
13,B14,84.2 ng/mL

# Molecular target: T1, human GPRC5D
# Test: cell-based or functional assay
# Remark: another data set of the same source
row,Binder,"CAR-J2 EC50 [ng/mL] (PGLALA-CAR-J activation, L363 target cells)"
1,B15,59.4 ng/mL
2,B16,42.4 ng/mL
3,B17,4.6 ng/mL
4,B18,3.3 ng/mL
5,B19,79.9 ng/mL
6,B20,3.5 ng/mL
7,B21,61.3 ng/mL
